B1: ER membrane protein complex subunit 2 (Homo sapiens), Q15006 (parent)
chain: MAKVSELYDVTWEEMRDKMRKWREENSRNSEQIVEVGEELINEYASKLGDDIWIIYEQVMIAALDYGRDDLALFCLQELRRQFPGSHRVKRLTGMRFEAMERYDDAIQLYDRILQEDPTNTAARKRKIAIRKAQGKNVEAIRELNEYLEQFVGDQEAWHELAELYINEHDYAKAAFCLEELMMTNPHNHLYCQQYAEVKYTQGGLENLELSRKYFAQALKLNNRNMRALFGLYMSASHIASNPKASAKTKKDNMKYASWAASQINRAYQFAGRSKKETKYSLKAVEDMLETLQITQS
partner: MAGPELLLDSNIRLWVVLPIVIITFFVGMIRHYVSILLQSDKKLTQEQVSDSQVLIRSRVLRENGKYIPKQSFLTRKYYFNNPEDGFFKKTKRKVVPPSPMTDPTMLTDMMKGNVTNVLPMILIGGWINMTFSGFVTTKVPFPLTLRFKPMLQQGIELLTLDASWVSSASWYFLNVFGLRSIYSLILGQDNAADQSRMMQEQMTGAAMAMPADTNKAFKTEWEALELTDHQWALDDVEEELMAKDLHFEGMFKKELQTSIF
B2: ER membrane protein complex subunit 2 (Homo sapiens), Q15006 (parent)
chain: B1 chain
partner: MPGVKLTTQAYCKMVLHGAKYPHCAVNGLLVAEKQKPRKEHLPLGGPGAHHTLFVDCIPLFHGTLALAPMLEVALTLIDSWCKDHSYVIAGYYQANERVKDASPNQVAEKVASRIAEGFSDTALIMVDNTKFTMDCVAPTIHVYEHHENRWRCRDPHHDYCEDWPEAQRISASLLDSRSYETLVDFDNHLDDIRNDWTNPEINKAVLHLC
B3: ER membrane protein complex subunit 6 (Homo sapiens), Q9BV81 (parent)
chain: MAAVVAKREGPPFISEAAVRGNAAVLDYCRTSVSALSGATAGILGLTGLYGFIFYLLASVLLSLLLILKAGRRWNKYFKSRRPLFTGGLIGGLFTYVLFWTFLYGMVHVY
partner: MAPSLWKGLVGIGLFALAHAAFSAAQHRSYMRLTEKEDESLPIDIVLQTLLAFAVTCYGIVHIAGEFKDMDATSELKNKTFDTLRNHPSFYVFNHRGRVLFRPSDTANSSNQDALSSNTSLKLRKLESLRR
B4: ER membrane protein complex subunit 2 (Homo sapiens), Q15006 (parent)
chain: B1 chain
partner: B3 partner

Variants of: B1
Conditions: with emc3_human EMC3, Q9P0I2

Variant | effect of a mutation on the interaction
E160A | with no effect
Y171A | with no effect
E180A | disrupting interaction strength
E156A | with no effect
R28A | with no effect

The next lines start with the values.

effect of a mutation on the interaction | Variant
disrupting interaction strength | W259A
disrupting interaction strength | R227A
with no effect | Y200A

Variants of: B2
Conditions: with emc8_human EMC8, O43402

Variant | effect of a mutation on the interaction
E160A | with no effect
Y171A | with no effect
E156A | with no effect
R28A | with no effect

Continued, values first:

effect of a mutation on the interaction | Variant
with no effect | E180A
disrupting interaction strength | Y200A
disrupting interaction strength | R227A
with no effect | W259A

Variants of: B3
Conditions: with emc5_human MMGT1, Q8N4V1

effect of a mutation on the interaction | Variant
with no effect | V33K;L36K
with no effect | G45Y;G48A

Variants of: B4
Conditions: with emc5_human MMGT1, Q8N4V1

Variant | effect of a mutation on the interaction
E156A | disrupting interaction strength
Y171A | with no effect
R28A | disrupting interaction strength
E160A | disrupting interaction strength

Now from value to variant:

effect of a mutation on the interaction | Variant
with no effect | W259A
disrupting interaction strength | R227A
disrupting interaction strength | Y200A
with no effect | E180A

— IntAct's records for PubMed 32439656
